Measured values published in patent publication US20100260765A1 (AstraZeneca / MedImmune, published 2010).
Residue numbers refer to the chain shown, from its start.

B1: 33C3 (antibody, V domains shown)
VH: QVQLVESGGGLVKPGESLRLSCAASGFTFSDYYMSWIRQAPGKGLEWVSYISHGGSTIYYADSVKGRFTISRDNAKNSLYLQMNSLRVEDTAVYFCARDDFWSGYYFNWFDPWGQGALVTVSS
VL: DIQMTQYPLSLSASVGDRVTITCRASQSISSFLNWYHQKPGKAPKLLIYGTSSLQSGVPSRFSGSGSGTDFTLTISSLQPEDFATYYCQQTYSIPLTFGGGTNVEIK
notes: Fully human mAb from XenoMouse hybridoma, tested as hybridoma supernatant
B2: 33E1 (antibody, V domains shown)
VH: QVQLQESGPGLVKPSQTLSLTCTVSGGSISSGDHYWSWIRQHPGKGLEWIGHIYYSGSTDYNPSLKSRVTISVDTSKNHFSLKLNSVTAADTAVYYCARTNSSSWSDWYFDLWGRGTLVTVSS
VL: DIVMTQSPDSLAVSLGERATINCKSSQSILYSSNNKNYLAWYQRKPGQPPILLIHWASTRESGVPDRFSGSGSRTDFTLTISSLQAEDVAVYYCQQYFITPWTFGQGTKVEIK
notes: as for B1
B3: anti-KDR monoclonal antibody 29A3 (antibody, V domains shown)
VH: QVQLQESGPGLVKPSETLSLTCTVSGGSISSYFWSWIRQPAGKGLEWIGRIYFSGRTNYNPSLKSRVTMSVETSKNQFSLKLNSVTAADTAVYYCARDGGWNYDVAFDYWGQGTLVTVSS
VL: QAVLTQPSSLSASPGASASLTCTLRSGINVGTYRIYWYQQKPGSPPQYLLRYKSDSDQLQGSGVPSRFSGSKDASANAGILLISGLQSEDEADYYCMVWHSNTWVFGGGTKLTVL
notes: Fully human mAb from XenoMouse (IgG2 or IgG4 strain); hybridoma supernatant
B4: anti-KDR monoclonal antibody 32B2 (antibody, V domains shown)
VH: EVQLLESGGGLVQPGGSLRLSCAASGFTFSNYAMSWVRQAPGKGLDWVSAISGRGGSTYYADSVKGRFTISRDNSKNTLFLLMNSLRAEDTAVYYCAKASGDDWGQGTLVTVSS
VL: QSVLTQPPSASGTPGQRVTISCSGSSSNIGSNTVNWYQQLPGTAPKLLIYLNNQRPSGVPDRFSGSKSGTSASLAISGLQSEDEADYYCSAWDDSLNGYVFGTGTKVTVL
notes: as for B3
B5: anti-KDR monoclonal antibody 29A11 (antibody, V domains shown)
VH: B4 VH with S35N, D46E, R54G, S57N, F80Y, L82Q, S85R
VL: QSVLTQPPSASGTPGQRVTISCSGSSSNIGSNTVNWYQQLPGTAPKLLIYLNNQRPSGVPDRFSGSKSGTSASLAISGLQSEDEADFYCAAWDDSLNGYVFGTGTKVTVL
notes: as for B3
B6: anti-KDR monoclonal antibody 30E3 (antibody, V domains shown)
VH: B4 VH with M34L, D46E, R54S, G56R, S57N, I70L, L82Q, D103N
VL: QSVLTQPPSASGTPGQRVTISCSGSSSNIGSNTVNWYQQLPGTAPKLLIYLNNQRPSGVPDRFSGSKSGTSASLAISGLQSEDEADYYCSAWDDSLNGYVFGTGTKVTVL
notes: Fully human mAb from XenoMouse (IgG2 or IgG4 strain); hybridoma supernatant; also called 30E3.1; 30E3.2
B7: anti-KDR monoclonal antibody 33D5 (antibody, V domains shown)
VH: QVQLVQSGAEVKKPGASVKVSCKASGYTFGSYDINWVRQATGQGLEWMGWMNPNSGNTGYAQKFQGRVTLTRNTSIRTVYMELSSLRSEDTAVYYCARGGYSNLGWFDPWGQGSLVTVSS
VL: DIQMTQSPSSVSVSVGDRVTITCRASQGISSWLAWYQQKPGKAPKLLIYAASSLQSGVPSRFSGSGSGTDFTLTISSLQPEDFATYYCQQANSFPFTFGPGTKVDIK
notes: as for B3
B8: anti-KDR monoclonal antibody 30D7 (antibody, V domains shown)
VH: QVPLVESGGGVVQPGRSLRLSCAASGFTFSSYGMHWVRQAPGKGLEWVAVIWYDGSNKYYADSVKGRFTISRDNSKNTLYLQMNSLRAEDTAVYYCARGVTMVRGVIIARYYYGLDVWGQGTTVTVSS
VL: DIVMTQTPLSSPVTLGQPASISCRSSQSLVHSDGNTYLSWLQQRPGQPPRLLIYKISNRFFGVPDRFSGSGAGTDFTLKIGRVEAEDVGLYYCMQSTQFPLTFGGGTKVEIK
notes: as for B3

Each binder was assayed against T1, soluble KDR extracellular domain (ECD) (Calbiochem) (human, UniProt P35968 20-764) (assay: Limited Antigen ELISA, KDR coat 12.5 ng/mL, supernatant 1:25).
T1 construct: extracellular domain; Bought protein; also called KDR-ECD; VEGF Receptor 2 D1-7, Cat. #676490
T1 sequence (P35968 20-764): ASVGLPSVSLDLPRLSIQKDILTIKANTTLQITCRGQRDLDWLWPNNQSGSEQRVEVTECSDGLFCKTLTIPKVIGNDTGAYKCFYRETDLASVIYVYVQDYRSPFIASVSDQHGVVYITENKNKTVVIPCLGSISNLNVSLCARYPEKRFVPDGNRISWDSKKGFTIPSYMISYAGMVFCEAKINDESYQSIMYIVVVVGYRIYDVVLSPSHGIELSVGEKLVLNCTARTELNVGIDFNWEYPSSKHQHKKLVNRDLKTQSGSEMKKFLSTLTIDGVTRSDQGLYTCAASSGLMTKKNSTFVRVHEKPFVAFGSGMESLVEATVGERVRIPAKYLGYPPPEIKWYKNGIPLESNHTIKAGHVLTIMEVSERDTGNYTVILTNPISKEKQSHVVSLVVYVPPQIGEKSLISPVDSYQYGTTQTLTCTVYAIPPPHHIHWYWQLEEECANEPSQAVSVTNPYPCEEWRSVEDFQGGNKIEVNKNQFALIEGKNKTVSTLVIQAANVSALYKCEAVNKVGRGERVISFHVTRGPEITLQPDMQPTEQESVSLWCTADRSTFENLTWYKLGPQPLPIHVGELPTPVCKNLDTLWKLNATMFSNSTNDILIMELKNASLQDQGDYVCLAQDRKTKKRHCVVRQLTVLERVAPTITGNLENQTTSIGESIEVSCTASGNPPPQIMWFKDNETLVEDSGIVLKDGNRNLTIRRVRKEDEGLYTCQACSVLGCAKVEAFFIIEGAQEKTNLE
Experimental: (§1) Samples containing one concentration of antibody (Ab) (1:25 dilution) were incubated overnight to allow Ab binding to approach equilibrium. The low antigen concentration limited the effect of antibody concentration, allowing ranking of the antibodies based on their relative affinity.

Binder	ELISA reading
B1	0.72
B2	0.15

The binders below were run against T1, soluble KDR extracellular domain (ECD) … (assay: Limited Antigen ELISA, KDR coat 25 ng/mL, supernatant 1:25).
Experimental: as §1

Binder	ELISA reading
B1	1.32
B2	0.36

These binders were tested against T1, soluble KDR extracellular domain (ECD) … (assay: High Antigen ELISA, KDR coat 500 ng/mL, supernatant 1:675).

Binder	ELISA reading
B1	2.55
B2	3.51

Each binder was assayed against T1, soluble KDR extracellular domain (ECD) … (assay: Limited Antigen ELISA, KDR coat 50 ng/mL, supernatant 1:25).
Experimental: as §1

Binder	ELISA reading
B1	3
B2	0.85

The binders below were run against T2, human KDR (VEGFR2) on cells (human, UniProt P35968 20-1356) (assay: cell-based or functional assay).
T2 sequence (P35968 20-1356): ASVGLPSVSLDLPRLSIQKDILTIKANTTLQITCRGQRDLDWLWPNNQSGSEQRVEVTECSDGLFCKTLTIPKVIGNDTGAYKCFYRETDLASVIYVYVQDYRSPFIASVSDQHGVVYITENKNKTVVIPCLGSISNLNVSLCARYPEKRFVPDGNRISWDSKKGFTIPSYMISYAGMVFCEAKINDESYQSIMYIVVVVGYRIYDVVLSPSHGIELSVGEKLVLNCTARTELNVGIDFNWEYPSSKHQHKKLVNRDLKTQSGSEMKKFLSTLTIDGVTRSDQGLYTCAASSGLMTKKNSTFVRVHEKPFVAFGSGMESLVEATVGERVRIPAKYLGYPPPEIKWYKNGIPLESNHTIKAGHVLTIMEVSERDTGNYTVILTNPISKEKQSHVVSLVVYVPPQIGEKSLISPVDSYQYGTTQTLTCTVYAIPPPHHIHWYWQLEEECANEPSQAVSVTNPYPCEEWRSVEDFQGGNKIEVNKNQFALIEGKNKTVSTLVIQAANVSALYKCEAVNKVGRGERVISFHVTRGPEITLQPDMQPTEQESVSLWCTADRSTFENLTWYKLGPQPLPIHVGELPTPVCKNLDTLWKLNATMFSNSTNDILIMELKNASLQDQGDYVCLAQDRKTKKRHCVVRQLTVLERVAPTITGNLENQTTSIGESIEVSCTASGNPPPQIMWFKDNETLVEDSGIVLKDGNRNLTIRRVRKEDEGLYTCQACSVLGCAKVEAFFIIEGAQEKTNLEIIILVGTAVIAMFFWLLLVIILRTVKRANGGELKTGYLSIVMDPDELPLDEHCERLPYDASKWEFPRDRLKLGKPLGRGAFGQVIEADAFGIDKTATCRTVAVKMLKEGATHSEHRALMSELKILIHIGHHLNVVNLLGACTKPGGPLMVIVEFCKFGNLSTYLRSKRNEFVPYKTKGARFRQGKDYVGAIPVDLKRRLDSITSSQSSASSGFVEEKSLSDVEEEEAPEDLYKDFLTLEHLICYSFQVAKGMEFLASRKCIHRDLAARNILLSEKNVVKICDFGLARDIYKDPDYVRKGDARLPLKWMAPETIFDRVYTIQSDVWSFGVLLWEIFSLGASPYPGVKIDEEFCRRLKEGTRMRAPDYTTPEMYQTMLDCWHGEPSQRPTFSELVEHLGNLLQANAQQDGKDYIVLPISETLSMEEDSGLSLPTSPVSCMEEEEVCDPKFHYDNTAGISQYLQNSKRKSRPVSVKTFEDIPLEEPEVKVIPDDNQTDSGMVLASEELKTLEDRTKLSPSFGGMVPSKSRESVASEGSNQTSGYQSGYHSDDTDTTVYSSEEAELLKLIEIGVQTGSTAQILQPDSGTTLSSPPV

Binder	% Inhibition of VEGF-E-mediated pTyr Activity
B3	22%
B4	15%
B5	15%
B6	19%
B7	30%
B8	24%

The binders below were run against T1, soluble KDR extracellular domain (ECD) … (assay: High Antigen ELISA, KDR coat 500 ng/mL, supernatant 1:75).

Binder	ELISA reading
B1	4.96
B2	4.24

Molecular target: T2, human KDR (VEGFR2) on cells
Experiment: cell-based or functional assay
Remark: another data set of the same source

Binder	% Inhibition of VEGF165-mediated pTyr Activity, Average	% Inhibition of VEGF165-mediated pTyr Activity, n = 1	% Inhibition of VEGF165-mediated pTyr Activity, n = 2	% Inhibition of VEGF165-mediated pTyr Activity, n = 3
B3	77%	92%	66%	72%
B4	77%	91%	75%	66%
B5	78%	96%	72%	66%
B6	71%	89%	67%	58%
B7	77%	95%	72%	63%
B8	76%	99%	71%	59%

Each binder was assayed against T1, soluble KDR extracellular domain (ECD) … (assay: High Antigen ELISA, KDR coat 500 ng/mL, supernatant 1:18,225).

Binder	ELISA reading
B1	0.18
B2	0.49

The binders below were run against T1, soluble KDR extracellular domain (ECD) … (assay: High Antigen ELISA, KDR coat 500 ng/mL, supernatant 1:6075).

Binder	ELISA reading
B1	0.31
B2	0.98

These binders were tested against T1, soluble KDR extracellular domain (ECD) … (assay: High Antigen ELISA, KDR coat 500 ng/mL, supernatant 1:225).

Binder	ELISA reading
B1	4.31
B2	4.07

These binders were tested against T3, soluble KDR (VEGF Receptor 2 D1-7, Cat. #676490, Calbiochem) (human, UniProt P35968 20-764) (assay: ELISA, plate-coated soluble KDR 250 ng/mL, hybridoma supernatant 1:5).
T3 construct: extracellular domain; Bought reagent; also called soluble human KDR; immobilized soluble KDR
T3 sequence (P35968 20-764): as the sequence (P35968 20-764) above
Experimental: To screen by binding to immobilized soluble KDR, plates were coated with KDR (Calbiochem) at 250 ng/mL overnight at 4° C. After blocking and washing the coated plates, the candidate hybridoma supernatants (at 1:5 dilution) were transferred to the plates and incubated for one hour at room temperature. The plates were then washed and incubated with secondary antibody (at 1:4000 dilution) for one hour at room temperature.

Binder	KDR OD(450 nm)
B3	0.814 OD450
B4	1.11 OD450
B5	3.53 OD450
B6	4.18 OD450
B7	3.59 OD450
B8	3.45 OD450

Each binder was assayed against T1, soluble KDR extracellular domain (ECD) … (assay: High Antigen ELISA, KDR coat 500 ng/mL, supernatant 1:25).

Binder	ELISA reading
B1	4.96
B2	4.06

What follows are binders tested against T1, soluble KDR extracellular domain (ECD) … (assay: Limited Antigen ELISA, KDR coat 3.125 ng/mL, supernatant 1:25).
Experimental: as §1

Binder	ELISA reading
B1	0.2
B2	0.07

These binders were tested against KDR endogenously expressed on human umbilical vein endothelial cells (HUVEC) (human, UniProt P35968 20-1356) (assay: cell-based or functional assay).
KDR endogenously expressed on human umbilical vein endothelial cells (HUVEC), sequence (P35968 20-1356): as the sequence (P35968 20-1356) above

Binder	VEGF-E-mediated Survival % Inhibition (Average)	VEGF-E-mediated Survival % Inhibition (n = 1)	VEGF-E-mediated Survival % Inhibition (n = 2)
B1	74%	78%	69%
B2	60%	66%	54%

Molecular target: T2, human KDR (VEGFR2) on cells
Experiment: cell-based or functional assay
Remark: another data set of the same source

Binder	HUVEC survival (n = 1) 1:10 dilution of supernatant (RLU)	HUVEC survival (n = 2) 1:20 dilution of supernatant (RLU)
B3	36400 RLU	2450 RLU
B4	19300 RLU	400 RLU
B5	34600 RLU	27700 RLU
B6	37500 RLU	30400 RLU
B7	43400 RLU	706 RLU
B8	28300 RLU	2520 RLU

Each binder was assayed against T1, soluble KDR extracellular domain (ECD) … (assay: Limited Antigen ELISA, KDR coat 6.25 ng/mL, supernatant 1:25).
Experimental: as §1

Binder	ELISA reading
B1	0.37
B2	0.11

Each binder was assayed against T2, human KDR (VEGFR2) on cells (assay: FACS on HUVEC, hybridoma supernatant 1:50).
Experimental: HUVECs were seeded at 15,000 cells/well and incubated with 100 μL of sample supernatant (at 1:50 dilution) for one hour at 4° C. The positive control was goat anti-KDR antibody (R&D Systems, Inc.), and negative controls included irrelevant hybridoma supernatants at the same dilution. The cells were then washed and incubated with Cy5-conjugated goat anti-human antibody at 5 μg/mL and 7-Amino-Actinomycin D (7AAD) at 5 μg/mL for 15 minutes at 4° C. Bound KDR was detected using FACS analysis.

Binder	FACS Geometric Mean
B3	30
B4	26
B5	31
B6	36
B7	24
B8	31

These binders were tested against T1, soluble KDR extracellular domain (ECD) … (assay: High Antigen ELISA, KDR coat 500 ng/mL, supernatant 1:2025).

Binder	ELISA reading
B1	0.84
B2	2.09
